One substance from publication PMC4441544 can be followed below.

In the test the target is voltage-dependent anion channel (VDAC) (rat (endogenous in rat cortex)) (UniProt Q9Z2L0). The test can be described thus: co-IP.
Chain of UniProt Q9Z2L0 (Q9Z2L0 whole entry): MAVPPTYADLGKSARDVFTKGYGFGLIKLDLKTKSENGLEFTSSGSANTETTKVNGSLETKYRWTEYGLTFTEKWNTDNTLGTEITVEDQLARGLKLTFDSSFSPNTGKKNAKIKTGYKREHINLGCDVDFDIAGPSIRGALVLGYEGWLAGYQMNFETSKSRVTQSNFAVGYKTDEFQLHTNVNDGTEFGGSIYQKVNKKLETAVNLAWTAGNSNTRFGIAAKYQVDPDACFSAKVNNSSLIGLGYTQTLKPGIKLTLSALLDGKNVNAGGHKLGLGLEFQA

Substance “Hexokinase II VDAC binding domain peptide (fused to Antennapedia homeo-domain)” registered a percent reduction of HK1-VDAC binding at 100 µM peptide (lower VDAC band, VDAC3) of 66.1% and a percent reduction of HK1-VDAC binding at 100 µM peptide (total VDAC) of 50.4%.
